In general, EC50 refers to the midpoint of the concentration-response curve. In general, Kd refers to the equilibrium constant for the complex coming apart. Read a high Kd as weaker binding. By koff is commonly meant the rate constant with which the complex falls apart. A higher koff goes with fast dissociation. A word on the kon: it is the rate constant with which the complex forms.

Here are results for 2 substances from article PMC5618021.

Test [1] concerns the target MERS-five-helix bundle (MERS-5HB) (MERS-CoV) (UniProt K0BRG7). The test is described as follows: ELISA. For orientation: In an ELISA, binding on a coated surface is turned into a signal by an enzyme label.
Test [2] addresses MERS-HR2P (MERS-CoV). Nature of the test: BLI.
In test [3] the target is MERS-HR2P (MERS-CoV). The test is described as follows: ELISA.

Regarding MERS-HR2P (peptide), in test [1], the 50% effective concentration (EC50) amounted to 31.8 nM.
“MERS-five-helix bundle (MERS-5HB) (from UniProt K0BRG7) (designed binder)”: in the test with MERS-HR2P (MERS-CoV) [2], the Kd was 0.24 nM, the dissociation rate constant (koff) was 1.26e-05 s⁻¹ and the on-rate (kon) turned out to be 52600 M⁻¹ s⁻¹. In the test with MERS-HR2P (MERS-CoV) [3], this substance registered an EC50 of 5.4 nM.
